Test results published in IntAct's records for PubMed 24316736.

B1: Ubiquitin-conjugating enzyme E2 R1 (Homo sapiens), P49427 (parent)
chain: MARPLVPSSQKALLLELKGLQEEPVEGFRVTLVDEGDLYNWEVAIFGPPNTYYEGGYFKARLKFPIDYPYSPPAFRFLTKMWHPNIYETGDVCISILHPPVDDPQSGELPSERWNPTQNVRTILLSVISLLNEPNTFSPANVDASVMYRKWKESKGKDREYTDIIRKQVLGTKVDAERDGVKVPTTLAEYCVKTKAPAPDEGSDLFYDDYYEDGEVEEEADSCFGDDEDDSGTEES

Variants of: B1
Conditions: with rbx1_human RBX1, P62877
Sequence of rbx1_human RBX1, P62877 (P62877 whole entry, looked up): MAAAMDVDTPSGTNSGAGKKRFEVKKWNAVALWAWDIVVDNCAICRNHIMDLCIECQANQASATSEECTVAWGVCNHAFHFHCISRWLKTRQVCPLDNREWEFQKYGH

effect of a mutation on the interaction | Variant
disrupting interaction strength | MARPLVPSSQKALLLELKGLQEEPVEGFRVTLVDEGDLYNWEVAIFGPPNTYYEGGYFKARLKFPIDYPYSPPAFRFLTKMWHPNIYETGDVCISILHPPVDDPQSGELPSERWNPEQNVRTILLSVISLLNEPNTFSPANVDASVMYRKWKESKGKDREYTDIIRKQVLGTKVDAERDGVKVPTTLAEYCVKTKAPAPDEGSDLFYDDYYEDGEVEEEADSCFGDDEDDSGTEES [T117E]
disrupting interaction strength | MARPLVPSSQKALLLELKGLQEEPVEGFRVTLVDEGDLYNWEVAIFGPPNTYYEGGYFKARLKFPIDYPRSPPAFRFLTKMWHPNIYETGDVCISILHPPVDDPQSGELPSERWNPTQNVRTILLSVISLLNEPNTFSPANVDASVMYRKWKESKGKDREYTDIIRKQVLGTKVDAERDGVKVPTTLAEYCVKTKAPAPDEGSDLFYDDYYEDGEVEEEADSCFGDDEDDSGTEES [Y70R]
